Laboratory results: patent US20180282403A1, “AGENTS FOR REDUCING THE ACTIVITY OF GDF15” (GENAGON THERAPEUTICS AB, priority 2015, published 2018)

Assays:
Assay type in all cases: cell-based
QRFPR [1] = target: T1, QRFPR (Homo sapiens, UniProt Q96P65); test: In situ PLA detection of ACTRIIB-QRFPR proximity in MCF7 cells; conditions: serum-starved MCF7 cells, GDF15 20 minutes; FIG. 3A-B
T1 construct: endogenous in cells
T1 sequence (Q96P65 1-431): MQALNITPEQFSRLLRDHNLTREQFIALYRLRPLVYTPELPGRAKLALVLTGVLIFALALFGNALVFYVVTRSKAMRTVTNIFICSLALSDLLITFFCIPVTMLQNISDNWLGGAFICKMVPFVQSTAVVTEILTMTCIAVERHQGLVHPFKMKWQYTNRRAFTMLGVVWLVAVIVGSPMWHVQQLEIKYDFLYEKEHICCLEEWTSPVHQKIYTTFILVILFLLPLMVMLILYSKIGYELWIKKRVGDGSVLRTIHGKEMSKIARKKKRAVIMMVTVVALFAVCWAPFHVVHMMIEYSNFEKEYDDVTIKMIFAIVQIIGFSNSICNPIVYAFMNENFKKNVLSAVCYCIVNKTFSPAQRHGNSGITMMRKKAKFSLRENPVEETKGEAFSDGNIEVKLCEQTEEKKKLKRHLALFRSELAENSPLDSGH
Experimental: MCF7 cells were stimulated with GDF15 (GDF15 from isolated mammalian source or recombinant derived from E. coli purchased from Abcam and Biovision). An assay was developed for monitoring the activity of GDF15 and to investigate the dynamics of receptor(s) such as QRFPR modulation by the ligand.
Serum-starved MCF7 cells were treated with GDF15, and an in situ PLA detection assay was developed to detect the interaction between ACTRIIB and QRFPR using antibodies from two different species, thus allowing the use of Duolink secondary detection reagents. The presence of the QRFPR-ACTRIIB complex was detected in the absence of GDF15 (see FIG. 3A, indicated by arrows).

SMAD2 = test: Detection of phosphorylated SMAD2 in NK-92 cells; conditions: GDF15 40 min
Experimental: GDF15 has been reported in the literature to mediate downstream signalling resembling both the canonical (SMAD) pathway mediated by ALK5(TGFBRI) kinase domain, and non-canonical TGFβ receptor signalling, such as phosphorylation of GSK3b. In order to investigate if CLPTM1 was involved in this we developed a set of in situ PLA assays to determine the dynamics between CLPTM1 and the TGFβ receptors and components downstream of the TGFβ receptors. NK-92 cells were treated with GDF15 for 40 min to detect phosphorylated SMAD proteins such as SMAD2 in the nucleus. […] From previous experiments with TGFB1 stimulation we know that the assay (pSMAD2) was functional.

QRFPR [2] = test: In situ PLA detection of QRFPR at the cell surface in U2OS osteosarcoma cells; conditions: U2OS cells, GDF15 alone; FIG. 9E
Text: A-D) In situ PLA detection of the Rab11-QRFPR complex following exposure of MCF7 cells to GDF15. A) +Ctrl peptide. B) +QRFPR extracellular N-terminal peptide. C-D) +QRFPR extracellular loop3 (domain 4) peptide. The level of the Rab11-QRFPR complex is reduced by the peptide from extracellular loop3 of QRFPR. E) in situ PLA detection of QRFPR in U2OS osteosarcoma cells.
(§1) We choose to use this assay as a way to investigate if the activity of GDF15 could be inhibited by various agents. […] GDF15-induced formation of RAB11/QRFPR endosomes is inhibited by QRFPR peptides (FIG. 9A-D). Equal amounts of a mastermix of GDF15 was aliquoted and pre-incubated in PBS with the various receptor fragment before addition to cells. Sequentially, the cells were treated with either PBS, GDF15 or GDF15/QRFPR-derived peptide mixes.

QRFPR [3] = target: T1, QRFPR; test: In situ PLA detection of RAB4-QRFPR double positive endosomes; conditions: GDF15 stimulation alone; FIG. 7
Experimental: An assay was developed to detect the proximity of RAB4-QRFPR using antibodies against RAB4 and QRFPR.
In short, the cells were serum starved overnight then pre-incubated with blocking antibodies towards extracellular parts of QRFPR for 2 hrs prior to GDF15 treatment (1 μg/ml) for 30 minutes. The levels of formed RAB4-QRFPR complexes were measured by visualization of formed RCA products using the Duolink is PLA system (see FIG. 11).

QRFPR [4] = target: T1, QRFPR; test: In situ PLA detection of CD9-QRFPR proximity; conditions: GDF15 30 minutes; FIG. 4
Text: The tetraspanin CD9 has dual roles, both in endosome trafficking and in exosome secretion (Mazurov et al.). An in situ PLA assay was developed to detect the proximity of CD9 and QRFPR using antibodies against CD9 and QRFPR. In the absence of GDF15, only a low signal level is observed (FIGS. 4A and 4C).

QRFPR [5] = target: T1, QRFPR; test: QRFPR levels after prolonged GDF15 stimulation with or without proteasome inhibition; conditions: GDF15 18 hrs, absence of MG132; FIG. 6B
Experimental: This effect is not seen in cells which are treated with MG132 (FIG. 6D).

QRFPR [6] = test: In situ PLA detection of RAB11-QRFPR double positive endosomes in MCF7 cells; conditions: GDF15 stimulation alone; FIG. 5
Text: The RAB11 protein is a marker for recycling endosomes back to the cell surface, and the RAB11 pathway is also involved in exosome assembly (Savina et al., 2005; Savina et al., 2002). RAB11 was thus thought to be a likely candidate to be involved in QRFPR reduction on the cell surface induced by GDF15
An in situ PLA assay was developed to detect the proximity of RAB11 and QRFPR. In the absence of GDF15, only a low signal is observed (FIGS. 5A and 5C).
as §1

Substance: GDF15: Growth and differentiation factor 15, from mammalian source or recombinant from E. coli (Abcam, Biovision)
- ACTRIIB-QRFPR in situ PLA signal (QRFPR [1]): reduced by GDF15 treatment
- c-terminal phosphorylated SMAD 2 (SMAD2): failed to detect c-terminal phosphorylated SMAD 2
- level of QRFPR at the cell surface (QRFPR [2]): reduced by GDF15
- RAB4-QRFPR double positive endosomes (QRFPR [3]): formation of RAB4-QRFPR double positive endosomes was detected
- CD9-QRFPR complex signal (QRFPR [4]): higher level of signal
- levels of QRFPR (QRFPR [5]): dramatically reduced the levels of QRFPR
- RAB11-QRFPR double positive endosomes (QRFPR [6]): rapid detection of RAB11-QRFPR double positive endosomes
